Measurements reported in the supplement of paper PMC9233669.
This sample holds only a part of the variants without activity.

Tested on: biotinyl-Phe-oxazolone
Experiment: self-aminoacylation, catalytic enhancement (BFO) (fold over background); higher = more active; k-Seq, kA / k0A0; sequences stand for … in GGGAAUGGAUCCACAUCUACGAAUUC…UUCACUGCAGACUUGACGAAGCUG
In short: (§1)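 Mutagenized RNA pools (0.43 μM; 21-nt variable region) were treated with 2–1250 μM of each biotinyl-aminoacyl-oxazolone. Conditions were 50 μL HEPES/NaCl/KCl/MgCl2/CaCl2 buffer, 5% acetonitrile, pH 6.9–7.0, room temperature, 90 minutes. Catalytic enhancement, the median kA relative to the uncatalyzed rate, was derived from streptavidin capture, qPCR and Illumina sequencing.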

**Q.** “AAGAUGGCUAAUAGUCGCAAG [Fam3.1 aminoacylation ribozyme variant]” was tested. Which self-aminoacylation did it give?
**A.** 2.14

**Q.** With “AAGCUUACUAAUAGUCGCAAG [Fam3.1 aminoacylation ribozyme variant]” as the sequence, how does the self-aminoacylation read?
**A.** 3.02

**Q.** “AAGCUUGCUAAUAAUCGCAAG [Fam3.1 aminoacylation ribozyme variant]” was tested. Which self-aminoacylation did it give?
**A.** 2.2

**Q.** Which self-aminoacylation does the source give for “AAGCUUGCUAAUAGUCCCAAG [Fam3.1 aminoacylation ribozyme variant]” here?
**A.** 3.57

**Q.** For “AAGGUUGCUAAUAGUCCCAAG [Fam3.1 aminoacylation ribozyme variant]”, which self-aminoacylation is on record?
**A.** 2.86

**Q.** For “AAGGUUGCUACUAGUCGCAAG [Fam3.1 aminoacylation ribozyme variant]”, which self-aminoacylation is on record?
**A.** 4

**Q.** How did the self-aminoacylation turn out when “AAGUAUGCUAAGAGUCGCAAG [Fam3.1 aminoacylation ribozyme variant]” was run?
**A.** 4.08

**Q.** Which self-aminoacylation does the source give for “AAGUAUGCUAAUAGUCGCUAG [Fam3.1 aminoacylation ribozyme variant]” here?
**A.** 2.24

**Q.** How did the self-aminoacylation turn out when “AAGUCUCCUAAUAGUCGCAAG [Fam3.1 aminoacylation ribozyme variant]” was run?
**A.** 3.11

**Q.** For “AAGUCUGCUGAUAGUCGCAAG [Fam3.1 aminoacylation ribozyme variant]”, which self-aminoacylation is on record?
**A.** 3.91

**Q.** How did the self-aminoacylation turn out when “AAGUUAGCGAAUAGUCGCAAG [Fam3.1 aminoacylation ribozyme variant]” was run?
**A.** 2.1

**Q.** With “AAGUUAGCUAAUUGUCGCAAG [Fam3.1 aminoacylation ribozyme variant]” as the sequence, how does the self-aminoacylation read?
**A.** 2.54

**Q.** “AAGUUCGCUAGUAGUCGCAAG [Fam3.1 aminoacylation ribozyme variant]” was tested. Which self-aminoacylation did it give?
**A.** 4.51

**Q.** How did the self-aminoacylation turn out when “AAGUUUAAUAAUAGUCGCAAG [Fam3.1 aminoacylation ribozyme variant]” was run?
**A.** 2.22

**Q.** For “AAGUUUACUAAUAGUCGCACG [Fam3.1 aminoacylation ribozyme variant]”, which self-aminoacylation is on record?
**A.** 2.22

**Q.** “AAGUUUACUAAUAGUCGUAAG [Fam3.1 aminoacylation ribozyme variant]” was tested. Which self-aminoacylation did it give?
**A.** 2.3

**Q.** Which self-aminoacylation does the source give for “AAGUUUCCAAAUAGUCGCAAG [Fam3.1 aminoacylation ribozyme variant]” here?
**A.** 2.83

**Q.** For “AAGUUUCCUAAUAGUCUCAAG [Fam3.1 aminoacylation ribozyme variant]”, which self-aminoacylation is on record?
**A.** 2.15

**Q.** Which self-aminoacylation does the source give for “AAGUUUGCGCAUAGUCGCAAG [Fam3.1 aminoacylation ribozyme variant]” here?
**A.** 2.97

**Q.** With “AAGUUUGCUAAAAGUCGCAUG [Fam3.1 aminoacylation ribozyme variant]” as the sequence, how does the self-aminoacylation read?
**A.** 2.71

**Q.** How did the self-aminoacylation turn out when “AAGUUUGCUAACAGUCGCAGG [Fam3.1 aminoacylation ribozyme variant]” was run?
**A.** 3.44

**Q.** With “AAGUUUGCUAAUACUCGCGAG [Fam3.1 aminoacylation ribozyme variant]” as the sequence, how does the self-aminoacylation read?
**A.** 5.73

**Q.** With “AAGUUUGCUAAUGGCCGCAAG [Fam3.1 aminoacylation ribozyme variant]” as the sequence, how does the self-aminoacylation read?
**A.** 4.21

**Q.** How did the self-aminoacylation turn out when “AAGUUUGCUCACAGUCGCAAG [Fam3.1 aminoacylation ribozyme variant]” was run?
**A.** 2.76

**Q.** For “AAGUUUGCUCAUAGUCGCAGG [Fam3.1 aminoacylation ribozyme variant]”, which self-aminoacylation is on record?
**A.** 2.92

**Q.** “AAGUUUGGUAAAAGUCGCAAG [Fam3.1 aminoacylation ribozyme variant]” was tested. Which self-aminoacylation did it give?
**A.** 2.32

**Q.** How did the self-aminoacylation turn out when “AAGUUUUCUAAUAGCCGCAAG [Fam3.1 aminoacylation ribozyme variant]” was run?
**A.** 2.19

**Q.** For “AAUUUUGCUAAUGGUCGCAAG [Fam3.1 aminoacylation ribozyme variant]”, which self-aminoacylation is on record?
**A.** 3.61

**Q.** For “ACACACUUCAAGCAAUCGAUC [Fam1B.1 aminoacylation ribozyme variant]”, which self-aminoacylation is on record?
**A.** 2.02

**Q.** For “ACGUUAGCUAAUAGUCGCAAG [Fam3.1 aminoacylation ribozyme variant]”, which self-aminoacylation is on record?
**A.** 3.08

**Q.** “ACUCACCUAGGUCAUCGUGUG [Fam2.2 aminoacylation ribozyme variant]” was tested. Which self-aminoacylation did it give?
**A.** 4.06

**Q.** For “AGGUUUGUUAAUAGUCGCAAG [Fam3.1 aminoacylation ribozyme variant]”, which self-aminoacylation is on record?
**A.** 3.87

**Q.** Which self-aminoacylation does the source give for “AGUCACCUAGGUCAUCGUGUG [Fam2.2 aminoacylation ribozyme variant]” here?
**A.** 7.83

**Q.** How did the self-aminoacylation turn out when “AUGUUUGCUAAUAGUCGGAAG [Fam3.1 aminoacylation ribozyme variant]” was run?
**A.** 5.76

**Q.** Which self-aminoacylation does the source give for “AUUACCCUGGCCAUCGUGUGA [Fam2.1 aminoacylation ribozyme variant]” here?
**A.** 6.7

**Q.** With “AUUACCCUGGUCAUCGAGAGG [Fam2.1 aminoacylation ribozyme variant]” as the sequence, how does the self-aminoacylation read?
**A.** 2.47

**Q.** For “AUUACCCUGGUCAUCGUGUGU [Fam2.1 aminoacylation ribozyme variant]”, which self-aminoacylation is on record?
**A.** 2.45

**Q.** Which self-aminoacylation does the source give for “AUUACCCUGGUCGUCGUGUGA [Fam2.1 aminoacylation ribozyme variant]” here?
**A.** 9.58

**Q.** With “AUUACCCUGGUGAUCGUGUGA [Fam2.1 aminoacylation ribozyme variant]” as the sequence, how does the self-aminoacylation read?
**A.** 5.71

**Q.** How did the self-aminoacylation turn out when “AUUCACCUAGGUCAUCCGGUC [Fam2.2 aminoacylation ribozyme variant]” was run?
**A.** 4.67

**Q.** “AUUCACCUAGGUCAUCCGGUU [Fam2.2 aminoacylation ribozyme variant]” was tested. Which self-aminoacylation did it give?
**A.** 9.74

**Q.** How did the self-aminoacylation turn out when “AUUCACCUAGGUCGUCGUGUG [Fam2.2 aminoacylation ribozyme variant]” was run?
**A.** 3.62

**Q.** Which self-aminoacylation does the source give for “AUUCACCUAGGUCGUCUGGUG [Fam2.2 aminoacylation ribozyme variant]” here?
**A.** 5.84

**Q.** With “AUUCACCUAGGUGAGCGGGUG [Fam2.2 aminoacylation ribozyme variant]” as the sequence, how does the self-aminoacylation read?
**A.** 7.25

**Q.** “AUUCACUUAGGUCGUCGGGUG [Fam2.2 aminoacylation ribozyme variant]” was tested. Which self-aminoacylation did it give?
**A.** 4.92

**Q.** Which self-aminoacylation does the source give for “AUUCUCCUAGGUCAUCGGGUC [Fam2.2 aminoacylation ribozyme variant]” here?
**A.** 4.09

**Q.** For “AUUUCCCUGGUCAUCGAGUUA [Fam2.1 aminoacylation ribozyme variant]”, which self-aminoacylation is on record?
**A.** 2.12

**Q.** How did the self-aminoacylation turn out when “CAACACUUCAAGCAAUCGGAC [Fam1B.1 aminoacylation ribozyme variant]” was run?
**A.** 2.37

**Q.** “CAACUUCAAACAAUCGAUCUG [Fam1A.1 aminoacylation ribozyme variant]” was tested. Which self-aminoacylation did it give?
**A.** 3.33

**Q.** How did the self-aminoacylation turn out when “CAACUUUAAACAAUCGGUCUG [Fam1A.1 aminoacylation ribozyme variant]” was run?
**A.** 2.09

**Q.** For “CAGUUUGCUAAUAGUCGCUAG [Fam3.1 aminoacylation ribozyme variant]”, which self-aminoacylation is on record?
**A.** 2.2

**Q.** Which self-aminoacylation does the source give for “CAGUUUGCUCAUAGUCGCAAG [Fam3.1 aminoacylation ribozyme variant]” here?
**A.** 2.06

**Q.** Which self-aminoacylation does the source give for “CCACACUUCAAACAAUCGAUC [Fam1B.1 aminoacylation ribozyme variant]” here?
**A.** 2.59

**Q.** For “CCACACUUCAGGCAAUCCGUC [Fam1B.1 aminoacylation ribozyme variant]”, which self-aminoacylation is on record?
**A.** 2.08

**Q.** “CCACAUUUCAAGAAAUCGGUC [Fam1B.1 aminoacylation ribozyme variant]” was tested. Which self-aminoacylation did it give?
**A.** 2.09

**Q.** For “CCACAUUUCAAGCAAUCGGUC [Fam1B.1 aminoacylation ribozyme variant]”, which self-aminoacylation is on record?
**A.** 3.26

**Q.** For “CCACGCAUCAAGCAAUCGGUC [Fam1B.1 aminoacylation ribozyme variant]”, which self-aminoacylation is on record?
**A.** 3.83

**Q.** With “CGACACUUCAGGCAAUCGGUC [Fam1B.1 aminoacylation ribozyme variant]” as the sequence, how does the self-aminoacylation read?
**A.** 2.04

**Q.** For “CUACAUCAAACAAUGGGUCUG [Fam1A.1 aminoacylation ribozyme variant]”, which self-aminoacylation is on record?
**A.** 2.95

**Q.** For “CUACUGCAAACAGUCGGUCUG [Fam1A.1 aminoacylation ribozyme variant]”, which self-aminoacylation is on record?
**A.** 2.04

**Q.** For “CUACUGCAAUCAAUCGGUCUG [Fam1A.1 aminoacylation ribozyme variant]”, which self-aminoacylation is on record?
**A.** 2.9

**Q.** With “CUACUUCAAAAACUCGGUCUG [Fam1A.1 aminoacylation ribozyme variant]” as the sequence, how does the self-aminoacylation read?
**A.** 2.19

**Q.** How did the self-aminoacylation turn out when “CUACUUCAAACACUCGGUCGG [Fam1A.1 aminoacylation ribozyme variant]” was run?
**A.** 5.02

**Q.** “CUACUUCAGACAAUCGGGCUG [Fam1A.1 aminoacylation ribozyme variant]” was tested. Which self-aminoacylation did it give?
**A.** 3.52

**Q.** For “CUACUUCCAACGAUCGGUCUG [Fam1A.1 aminoacylation ribozyme variant]”, which self-aminoacylation is on record?
**A.** 3.05

**Q.** “CUAGUUCAAACAAUCGGUAUG [Fam1A.1 aminoacylation ribozyme variant]” was tested. Which self-aminoacylation did it give?
**A.** 3.27

**Q.** Which self-aminoacylation does the source give for “CUCCUUCAAACAGUCGGUCUG [Fam1A.1 aminoacylation ribozyme variant]” here?
**A.** 3.98

**Q.** Which self-aminoacylation does the source give for “CUGCUUCAAACAAUCCGUCUG [Fam1A.1 aminoacylation ribozyme variant]” here?
**A.** 2.71

**Q.** For “GAGUUUGCUAAUAGUAGCAAG [Fam3.1 aminoacylation ribozyme variant]”, which self-aminoacylation is on record?
**A.** 3.32

**Q.** Which self-aminoacylation does the source give for “GCACACUUCAAGCAAACGGUC [Fam1B.1 aminoacylation ribozyme variant]” here?
**A.** 2.05

**Q.** With “GUACUGCAAACAAUCGGUCUG [Fam1A.1 aminoacylation ribozyme variant]” as the sequence, how does the self-aminoacylation read?
**A.** 3.7

**Q.** Which self-aminoacylation does the source give for “GUACUUCGAACAAUCGGUCUG [Fam1A.1 aminoacylation ribozyme variant]” here?
**A.** 5.74

Tested on: biotinyl-Trp-oxazolone
Experiment: self-aminoacylation, catalytic enhancement (BWO) (fold over background); higher = more active; k-Seq, kA / k0A0; sequences stand for … in GGGAAUGGAUCCACAUCUACGAAUUC…UUCACUGCAGACUUGACGAAGCUG
In short: as §1

**Q.** “AAGUAUGCUAAUAGUCGCCAG [Fam3.1 aminoacylation ribozyme variant]” was tested. Which self-aminoacylation did it give?
**A.** 3.29

**Q.** How did the self-aminoacylation turn out when “AAGUUGGCUAAUAGUCGCGAG [Fam3.1 aminoacylation ribozyme variant]” was run?
**A.** 3.96

**Q.** For “AAGUUUGCUAAAAGUCGCCAG [Fam3.1 aminoacylation ribozyme variant]”, which self-aminoacylation is on record?
**A.** 2.25

**Q.** For “AAGUUUGCUAAUAUUCCCAAG [Fam3.1 aminoacylation ribozyme variant]”, which self-aminoacylation is on record?
**A.** 2.1

**Q.** Which self-aminoacylation does the source give for “AAUUUUGCGAAUAGUCGCAAG [Fam3.1 aminoacylation ribozyme variant]” here?
**A.** 2
